The term Kd denotes the concentration at which binding is half-saturated.

Where two headings read alike, the source gives them in different places.

Experiment [1] concerns the target T1, murine CCL2 (mouse, UniProt P10148 24-148).
Experiment [2] concerns the target T2, murine CCL3 (mouse, UniProt P10855 24-92).
T2 construct: also called mCCL3
T2 sequence: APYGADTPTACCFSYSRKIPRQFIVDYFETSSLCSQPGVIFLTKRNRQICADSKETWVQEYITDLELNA
Description: SPR, R17 amine-coupled to CM5 chip. For orientation: In SPR one partner is held on a chip, and binding of the other changes the refractive index at the surface.

In experiment [3] the target is T3, human CCL5 (human, UniProt P13501 24-91).
T3 construct: also called hCCL5
T3 sequence: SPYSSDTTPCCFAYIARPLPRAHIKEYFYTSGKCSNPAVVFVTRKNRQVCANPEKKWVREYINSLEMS
The experiment is described as follows: SPR, R17 amine-coupled to CM5 chip.

The target in experiment [4] is T1, murine CCL2. Description: SPR, R17 on CM5 chip; t1/2.
The target in experiment [5] is T2, murine CCL3. Description: SPR, R17 on CM5 chip; t1/2.
Experiment [6] concerns the target T4, murine CCL4 (mouse, UniProt P14097 24-92).
T4 construct: also called mCCL4
T4 sequence: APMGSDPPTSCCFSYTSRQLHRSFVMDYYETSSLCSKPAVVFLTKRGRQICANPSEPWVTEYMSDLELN
Description: SPR, R17 on CM5 chip; t1/2.

Another experiment concerns the target T5, murine CCL5 (mouse, UniProt P30882 24-91).
T5 construct: also called mCCL5
Description: SPR, R17 on CM5 chip; t1/2.

Experiment [7] has as its target T3, human CCL5. The experiment is described as follows: SPR, R17 on CM5 chip; t1/2.
The target in the next experiment is T6, murine CCL8 (mouse, UniProt Q9Z121 24-97).
T6 construct: also called mCCL8
T6 sequence: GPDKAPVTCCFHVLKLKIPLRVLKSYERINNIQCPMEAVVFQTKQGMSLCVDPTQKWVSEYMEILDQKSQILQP
Description: SPR, R17 on CM5 chip; t1/2.

Experiment [8] has as its target T7, murine CCL20 (mouse, UniProt O89093 28-97).
T7 construct: also called mCCL20
T7 sequence: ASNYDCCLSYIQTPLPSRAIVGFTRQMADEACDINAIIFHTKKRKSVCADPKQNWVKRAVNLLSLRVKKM
The experiment is described as follows: SPR, R17 on CM5 chip; t1/2.

The target in experiment [9] is T8, murine CCL24 (mouse, UniProt Q9JKC0 27-119).
T8 construct: also called mCCL24
T8 sequence: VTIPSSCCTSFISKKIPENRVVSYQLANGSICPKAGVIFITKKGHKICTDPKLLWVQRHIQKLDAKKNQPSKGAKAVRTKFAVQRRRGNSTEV
The experiment is described as follows: SPR, R17 on CM5 chip; t1/2.

Experiment [10] concerns the target T9, murine CCL12 (mouse, UniProt Q62401 23-104).
T9 construct: also called mCCL12
T9 sequence: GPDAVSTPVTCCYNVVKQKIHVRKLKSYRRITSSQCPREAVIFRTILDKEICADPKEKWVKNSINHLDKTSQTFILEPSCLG
Description: SPR, R17 on CM5 chip; t1/2.

In experiment [11] the target is T10, murine XCL1 (lymphotactin) (mouse, UniProt P47993 22-114).
T10 construct: also called mXCL1; lymphotactin (XCL1)
T10 sequence: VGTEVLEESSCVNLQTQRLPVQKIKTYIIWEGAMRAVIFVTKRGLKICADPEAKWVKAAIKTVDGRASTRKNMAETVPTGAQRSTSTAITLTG
The experiment is described as follows: SPR, R17 on CM5 chip; t1/2.

Experiment [12] deals with T11, CCL9 (UniProt P51670 22-122).
T11 sequence: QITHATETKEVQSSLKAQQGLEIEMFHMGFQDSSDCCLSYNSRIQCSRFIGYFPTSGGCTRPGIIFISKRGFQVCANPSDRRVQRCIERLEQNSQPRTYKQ
The experiment is described as follows: SPR, R17 on CM5 chip; t1/2.

The target of experiment [13] is CCL3 (species not given). Description: SPR, R17 variant on CM5 chip; column KDeq (nM); ka, kd, KD printed n/a.
Experiment [14] concerns the target T1, murine CCL2. The experiment is described as follows: SPR, R17 on CM5 chip; KD,eq from saturation binding, Scatchard analysis.
In experiment [15] the target is T2, murine CCL3. The description is as above.
Experiment [16] concerns the target T4, murine CCL4. The description is as above.
For experiment [17], the target named is T3, human CCL5. The description is as above.
The target of experiment [18] is T7, murine CCL20. The experiment is described as above.
Experiment [19] deals with T8, murine CCL24. The experiment is described as above.
Experiment [20] has as its target T9, murine CCL12. The description is as above.
For experiment [21], the target named is T10, murine XCL1 (lymphotactin). The description is as above.
Experiment [22] concerns the target T11, CCL9. The description is as above.

T1 sequence (P10148 24-148 limits assumed): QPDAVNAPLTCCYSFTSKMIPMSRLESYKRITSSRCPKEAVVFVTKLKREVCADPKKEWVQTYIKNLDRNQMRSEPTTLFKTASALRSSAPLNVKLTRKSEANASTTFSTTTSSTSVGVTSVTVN
T5 sequence (P30882 24-91 limits assumed): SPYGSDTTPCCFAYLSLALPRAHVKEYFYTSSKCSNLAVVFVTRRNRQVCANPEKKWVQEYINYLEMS

B1: R17 chemokine decoy receptor of Rodent herpesvirus Peru (RHVP), wild type, C-terminal 8-His fusion (receptor)
chain: GPVGEPVASEINEASKVSSRLLTQDILFRKDRQATISLPIKLPVEDIITQTCDKITYGPLKFLDLLEKETAVLPLSTDITCPACLGRAVLVGKWECPAHVAVNESDLTVFGPNKEEHVPQFVTVQQPSDGKMQRLFFAKFLGTEESLAVLRVPGPDGHLCIQEALIHFKELSGAGVCSLWKANDSREEGLEMKQVDCLETTVLENQTCIATTLSKKIYHRLYCGERLMTGGQVSTRVLLTALGFYKRQPYTFHRVPKGMVYVHLIDSGSEDYMEYSECEEVTPGRYEDKQISYTFYTDLFQTADGEPVLASVWGTSGLKDSAYESCAFVIPTKGRRKLVPRRIMSKCYPFRLTYHPSTMTVRLDVRVEKHHGATDQGFVFLKMESGTYSEGREYYLDRVLWGEDSSTNNVLQ
notes: not shown: C-terminal 8-His tag
Turning to B1, the Kd stood at 12 nM with murine CCL2 [1]; 0.4 nM in [13]; 10 nM with murine CCL2 [14]; 0.4 nM in the experiment with murine CCL3 [15]; 0.8 nM with murine CCL4 [16]; 0.9 nM with human CCL5 [17]. Moreover, the dissociation constant Kd was 3.4 nM with murine CCL20 [18]; 2.2 nM with murine CCL24 [19]; 1.3 nM in the experiment with murine CCL12 [20]; 4.2 nM in [21]; 1.3 nM with CCL9 [22]. Besides, the “dissociation time of the complex” value with murine CCL3 [2] and with human CCL5 [3] was greater than 10 min throughout. Moreover, the t1/2 with murine CCL2 [4] was 34.6 s; with murine CCL3 [5], greater than 1000 s; with murine CCL4 [6], greater than 1000 s; with murine CCL5 it was greater than 1000 s; in the experiment with human CCL5 [7], greater than 1000 s; with murine CCL8, 6.9 s. Moreover, the t1/2 with murine CCL20 [8] is 32.2 s; in the experiment with murine CCL24 [9] it was greater than 1000 s; with murine CCL12 [10] it was 6.9 s; in [11], greater than 1000 s; with CCL9 [12], 6.8 s.

Values taken from patent US20200164032A1 (WASHINGTON UNIVERSITY, published 2020).
